The source of these data is patent publication US5639663, “Bifunctional genetic markers” (National Research Council of Canada, dated 1997).

For this experiment, the target named is beta-glucuronidase (GUS), unfused, expressed from pGK1 (E. coli, UniProt P05804). Kind of experiment: molecular sieve chromatography (Superose 6) of E. coli extract co-expressing unfused GUS and NPT-II; enzyme activities of the fractions.

B1: neomycin phosphotransferase-II (NPT-II), unfused, expressed from pGS39 (enzyme)
chain: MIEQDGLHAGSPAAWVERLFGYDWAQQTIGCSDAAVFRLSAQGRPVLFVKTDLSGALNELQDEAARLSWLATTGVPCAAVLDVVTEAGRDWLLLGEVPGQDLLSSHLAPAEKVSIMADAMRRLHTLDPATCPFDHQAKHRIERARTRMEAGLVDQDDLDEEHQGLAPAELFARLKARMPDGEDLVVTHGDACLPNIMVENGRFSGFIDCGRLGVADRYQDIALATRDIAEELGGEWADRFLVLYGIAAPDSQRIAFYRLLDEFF
Take B1: the binding result is given as “no binding”.
